Test results: article PMC10917784 (Nature Communications, 2024)

Tests used:
Details in all cases: one partner purified
CD38 on tumor cell lines [1] = target: T1, CD38 on tumor cell lines (Homo sapiens, UniProt P28907); test: flow cytometry on cells; KMS-12-BM cells, increasing antibody concentrations, 4 °C, 30 min, labelled anti-human IgG secondary; Kd from fit of RFI
T1 construct: CD38 on the surface of CD38high (Daudi, Raji) and CD38low (NCI-H929, KMS-12-BM) cell lines; source: endogenous, on Daudi, Raji, NCI-H929 and KMS-12-BM cells

CD38 on tumor cell lines [2] = target: T1, CD38 on tumor cell lines; test: flow cytometry on cells; NCI-H929 cells, increasing antibody concentrations, 4 °C, 30 min, labelled anti-human IgG secondary; Kd from fit of RFI
CD38 on tumor cell lines [3] = target: T1, CD38 on tumor cell lines; test: flow cytometry on cells; Raji cells, increasing antibody concentrations, 4 °C, 30 min, labelled anti-human IgG secondary; Kd from fit of RFI
CD38 on tumor cell lines [4] = target: T1, CD38 on tumor cell lines; test: flow cytometry on cells; Daudi cells, increasing antibody concentrations, 4 °C, 30 min, labelled anti-human IgG secondary; Kd from fit of RFI

Kd (CD38 on tumor cell lines [1]): 0.138 nM
Kd (CD38 on tumor cell lines [2]): 0.506 nM
Kd (CD38 on tumor cell lines [3]): 0.33 nM
Kd (CD38 on tumor cell lines [4]): 0.258 nM
B1: daratumumab (antibody, V domains shown)
VH: EVQLLESGGGLVQPGGSLRLSCAVSGFTFNSFAMSWVRQAPGKGLEWVSAISGSGGGTYYADSVKGRFTISRDNSKNTLYLQMNSLRAEDTAVYFCAKDKILWFGEPVFDYWGQGTLVTVSS
VL: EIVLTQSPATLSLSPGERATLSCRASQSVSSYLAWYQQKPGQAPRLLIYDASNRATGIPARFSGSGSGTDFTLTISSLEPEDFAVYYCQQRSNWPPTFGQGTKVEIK
notes: whole antibody in the assay; the PDB entry holds only part of it; also called Darzalex; source: bought: Janssen Biotech Inc
